Measured values published in publication PMC6596994 (Nature, 2019).
Where two headings read alike, the source gives them in different places.

What was measured:
Assay in all cases: SPR
Mouse TBK1 (1–657) = target: T1, Mouse TBK1 (1–657) (mouse, UniProt Q9WUN2 1-657)
T1 sequence: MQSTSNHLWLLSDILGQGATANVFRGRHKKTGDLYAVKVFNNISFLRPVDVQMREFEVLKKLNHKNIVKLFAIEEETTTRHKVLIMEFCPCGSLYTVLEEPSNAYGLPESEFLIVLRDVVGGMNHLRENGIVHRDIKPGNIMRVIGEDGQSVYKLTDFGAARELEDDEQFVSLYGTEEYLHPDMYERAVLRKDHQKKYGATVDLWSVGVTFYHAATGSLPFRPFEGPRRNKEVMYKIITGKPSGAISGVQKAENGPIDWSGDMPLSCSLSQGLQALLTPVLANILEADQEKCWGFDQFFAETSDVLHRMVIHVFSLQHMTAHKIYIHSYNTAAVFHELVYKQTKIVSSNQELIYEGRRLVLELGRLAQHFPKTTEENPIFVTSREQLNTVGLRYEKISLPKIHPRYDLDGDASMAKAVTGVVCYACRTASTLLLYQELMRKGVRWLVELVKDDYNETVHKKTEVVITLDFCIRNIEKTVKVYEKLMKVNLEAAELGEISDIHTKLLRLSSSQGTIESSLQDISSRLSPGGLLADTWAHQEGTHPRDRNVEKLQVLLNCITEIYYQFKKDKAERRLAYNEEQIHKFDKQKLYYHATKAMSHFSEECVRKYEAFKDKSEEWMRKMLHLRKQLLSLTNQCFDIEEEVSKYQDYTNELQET

[1] = target: T2, Mouse TBK1 (1–657, S172A) (mouse, UniProt Q9WUN2 1-657, S172A)
T2 sequence: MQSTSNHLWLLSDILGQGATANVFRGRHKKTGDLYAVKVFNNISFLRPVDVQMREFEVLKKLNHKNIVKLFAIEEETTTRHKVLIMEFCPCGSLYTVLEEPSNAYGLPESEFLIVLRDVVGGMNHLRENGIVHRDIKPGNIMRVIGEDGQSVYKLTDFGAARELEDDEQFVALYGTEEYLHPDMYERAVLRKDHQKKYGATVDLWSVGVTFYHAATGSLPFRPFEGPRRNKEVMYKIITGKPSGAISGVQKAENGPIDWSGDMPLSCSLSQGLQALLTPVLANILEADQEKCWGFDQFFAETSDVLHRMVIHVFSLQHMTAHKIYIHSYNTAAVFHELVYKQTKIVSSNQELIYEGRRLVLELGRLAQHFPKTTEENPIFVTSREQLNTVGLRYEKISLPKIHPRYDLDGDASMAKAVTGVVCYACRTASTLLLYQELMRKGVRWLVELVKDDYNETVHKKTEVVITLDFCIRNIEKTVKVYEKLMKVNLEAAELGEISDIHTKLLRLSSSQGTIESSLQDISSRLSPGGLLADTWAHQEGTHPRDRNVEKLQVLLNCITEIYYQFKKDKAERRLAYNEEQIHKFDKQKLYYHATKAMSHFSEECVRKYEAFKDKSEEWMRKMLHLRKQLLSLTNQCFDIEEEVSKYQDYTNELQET

[2] = target: T3, Human TBK1 (1–657, S172A) (human, UniProt Q9UHD2 1-657, S172A)
T3 sequence: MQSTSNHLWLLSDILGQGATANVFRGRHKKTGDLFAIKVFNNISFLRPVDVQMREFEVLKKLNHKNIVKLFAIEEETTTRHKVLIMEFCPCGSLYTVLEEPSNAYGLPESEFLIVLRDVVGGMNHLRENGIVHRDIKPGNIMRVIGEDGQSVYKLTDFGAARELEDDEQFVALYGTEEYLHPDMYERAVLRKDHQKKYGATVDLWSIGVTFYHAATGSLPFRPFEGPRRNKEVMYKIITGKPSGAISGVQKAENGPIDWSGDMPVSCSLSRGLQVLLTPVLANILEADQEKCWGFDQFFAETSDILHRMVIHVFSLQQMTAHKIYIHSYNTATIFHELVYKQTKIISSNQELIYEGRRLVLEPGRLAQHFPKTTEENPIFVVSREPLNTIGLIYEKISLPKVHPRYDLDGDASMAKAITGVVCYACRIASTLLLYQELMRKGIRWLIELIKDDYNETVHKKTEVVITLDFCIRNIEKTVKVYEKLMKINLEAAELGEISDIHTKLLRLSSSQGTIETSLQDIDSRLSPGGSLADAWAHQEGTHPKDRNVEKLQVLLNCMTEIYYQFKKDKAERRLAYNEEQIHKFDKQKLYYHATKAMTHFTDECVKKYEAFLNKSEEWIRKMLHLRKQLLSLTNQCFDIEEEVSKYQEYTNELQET

[3] = target: T2, Mouse TBK1 (1–657, S172A); remark: listed apart in the source
[4] = target: T3, Human TBK1 (1–657, S172A); remark: listed apart in the source

B1: p-hSTING (155–379) (domain or fragment)
chain: VAHGLAWSYYIGYLRLILPELQARIRTYNQHYNNLLRGAVSQRLYILLPLDCGVPDNLSMADPNIRFLDKLPQQTGDHAGIKDRVYSNSIYELLENGQRAGTCVLEYATPLQTLFAMSQYSQAGFSREDRLEQAKLFCRTLEDILADAPESQNNCRLIAYQEPADDSSFSLSQEVLRHLRQEEKEEVTVGSLKTSAVPSTSTMSQEPELLISGMEKPLPLRTDFS
- Kd (Mouse TBK1 (1–657)): 13.3 µM
- Kd [1]: 9.1 µM
- Kd [2]: 11 µM
- Kd [3]: 12.5 µM
- Kd [4]: 20 µM
